Source: PMC3050068

Legend:
[1] = tested on: O=C(O)[C@H]1O[C@H](OP(=O)(O)OP(=O)(O)OC[C@H]2O[C@@H](n3ccc(=O)[nH]c3=O)[C@H](O)[C@@H]2O)[C@H](O)[C@@H](O)[C@@H]1O; experiment: purified protein; conditions: NAD+ as co-substrate, pH 8.5, 25°C, without WlbC
[2] = tested on: O=C(O)[C@H]1O[C@H](OP(=O)(O)OP(=O)(O)OC[C@H]2O[C@@H](n3ccc(=O)[nH]c3=O)[C@H](O)[C@@H]2O)[C@H](O)[C@@H](O)[C@@H]1O; experiment: purified protein; assay type: biochemical, Chromobacterium violaceum; conditions: NAD+ as co-substrate, pH 8.5 (50 mM HEPPS), 25°C, without WlbC
[3] = biological target: WlbA from Chromobacterium violaceum (Chromobacterium violaceum); experiment: AUC
[4] = biological target: WlbA from Chromobacterium violaceum (Chromobacterium violaceum); experiment: crystal structure

With “B. pertussis WlbA (Bordetella pertussis Tohama I)” the Km [1] was 2050 ± 210 µM, the kcat [1] was 0.0021 ± 0.0001 s⁻¹ and the kcat/Km [1] was 1 M⁻¹ s⁻¹.

“C. violaceum WlbA (Chromobacterium violaceum ATCC 12472)” showed a Km [2] of 200 ± 20 µM, a kcat [2] of 0.00015 ± 0.00001 s⁻¹ and a kcat/Km [2] of 0.75 M⁻¹ s⁻¹.

Substance “WlbA from Chromobacterium violaceum (enzyme)” has a stoichiometry N [3] of 8 and a stoichiometry N [4] of 8.
